The results in this text go back to publication PMC8018780 (2021).

Ends that are not written are not given here.

For orientation: Kd means a measure of binding affinity in units of concentration.

Assay in all cases: SPR
(In general: Surface plasmon resonance follows binding to a sensor surface in real time, without labels.)

Experiment [1] has as its target recombinant human transferrin receptor (TfR) protein (human, UniProt P02786 101-760).
Experiment [2] concerns the target low-density lipoprotein receptor-related protein 1 (LRP-1), human (human).
Experiment [3] concerns the target recombinant mouse transferrin receptor (TfR) protein (mouse, UniProt Q62351 1-763).

Sequence of low-density lipoprotein receptor-related protein 1 (LRP-1), human (human) (Q07954 20-3943, chain 1 of 2): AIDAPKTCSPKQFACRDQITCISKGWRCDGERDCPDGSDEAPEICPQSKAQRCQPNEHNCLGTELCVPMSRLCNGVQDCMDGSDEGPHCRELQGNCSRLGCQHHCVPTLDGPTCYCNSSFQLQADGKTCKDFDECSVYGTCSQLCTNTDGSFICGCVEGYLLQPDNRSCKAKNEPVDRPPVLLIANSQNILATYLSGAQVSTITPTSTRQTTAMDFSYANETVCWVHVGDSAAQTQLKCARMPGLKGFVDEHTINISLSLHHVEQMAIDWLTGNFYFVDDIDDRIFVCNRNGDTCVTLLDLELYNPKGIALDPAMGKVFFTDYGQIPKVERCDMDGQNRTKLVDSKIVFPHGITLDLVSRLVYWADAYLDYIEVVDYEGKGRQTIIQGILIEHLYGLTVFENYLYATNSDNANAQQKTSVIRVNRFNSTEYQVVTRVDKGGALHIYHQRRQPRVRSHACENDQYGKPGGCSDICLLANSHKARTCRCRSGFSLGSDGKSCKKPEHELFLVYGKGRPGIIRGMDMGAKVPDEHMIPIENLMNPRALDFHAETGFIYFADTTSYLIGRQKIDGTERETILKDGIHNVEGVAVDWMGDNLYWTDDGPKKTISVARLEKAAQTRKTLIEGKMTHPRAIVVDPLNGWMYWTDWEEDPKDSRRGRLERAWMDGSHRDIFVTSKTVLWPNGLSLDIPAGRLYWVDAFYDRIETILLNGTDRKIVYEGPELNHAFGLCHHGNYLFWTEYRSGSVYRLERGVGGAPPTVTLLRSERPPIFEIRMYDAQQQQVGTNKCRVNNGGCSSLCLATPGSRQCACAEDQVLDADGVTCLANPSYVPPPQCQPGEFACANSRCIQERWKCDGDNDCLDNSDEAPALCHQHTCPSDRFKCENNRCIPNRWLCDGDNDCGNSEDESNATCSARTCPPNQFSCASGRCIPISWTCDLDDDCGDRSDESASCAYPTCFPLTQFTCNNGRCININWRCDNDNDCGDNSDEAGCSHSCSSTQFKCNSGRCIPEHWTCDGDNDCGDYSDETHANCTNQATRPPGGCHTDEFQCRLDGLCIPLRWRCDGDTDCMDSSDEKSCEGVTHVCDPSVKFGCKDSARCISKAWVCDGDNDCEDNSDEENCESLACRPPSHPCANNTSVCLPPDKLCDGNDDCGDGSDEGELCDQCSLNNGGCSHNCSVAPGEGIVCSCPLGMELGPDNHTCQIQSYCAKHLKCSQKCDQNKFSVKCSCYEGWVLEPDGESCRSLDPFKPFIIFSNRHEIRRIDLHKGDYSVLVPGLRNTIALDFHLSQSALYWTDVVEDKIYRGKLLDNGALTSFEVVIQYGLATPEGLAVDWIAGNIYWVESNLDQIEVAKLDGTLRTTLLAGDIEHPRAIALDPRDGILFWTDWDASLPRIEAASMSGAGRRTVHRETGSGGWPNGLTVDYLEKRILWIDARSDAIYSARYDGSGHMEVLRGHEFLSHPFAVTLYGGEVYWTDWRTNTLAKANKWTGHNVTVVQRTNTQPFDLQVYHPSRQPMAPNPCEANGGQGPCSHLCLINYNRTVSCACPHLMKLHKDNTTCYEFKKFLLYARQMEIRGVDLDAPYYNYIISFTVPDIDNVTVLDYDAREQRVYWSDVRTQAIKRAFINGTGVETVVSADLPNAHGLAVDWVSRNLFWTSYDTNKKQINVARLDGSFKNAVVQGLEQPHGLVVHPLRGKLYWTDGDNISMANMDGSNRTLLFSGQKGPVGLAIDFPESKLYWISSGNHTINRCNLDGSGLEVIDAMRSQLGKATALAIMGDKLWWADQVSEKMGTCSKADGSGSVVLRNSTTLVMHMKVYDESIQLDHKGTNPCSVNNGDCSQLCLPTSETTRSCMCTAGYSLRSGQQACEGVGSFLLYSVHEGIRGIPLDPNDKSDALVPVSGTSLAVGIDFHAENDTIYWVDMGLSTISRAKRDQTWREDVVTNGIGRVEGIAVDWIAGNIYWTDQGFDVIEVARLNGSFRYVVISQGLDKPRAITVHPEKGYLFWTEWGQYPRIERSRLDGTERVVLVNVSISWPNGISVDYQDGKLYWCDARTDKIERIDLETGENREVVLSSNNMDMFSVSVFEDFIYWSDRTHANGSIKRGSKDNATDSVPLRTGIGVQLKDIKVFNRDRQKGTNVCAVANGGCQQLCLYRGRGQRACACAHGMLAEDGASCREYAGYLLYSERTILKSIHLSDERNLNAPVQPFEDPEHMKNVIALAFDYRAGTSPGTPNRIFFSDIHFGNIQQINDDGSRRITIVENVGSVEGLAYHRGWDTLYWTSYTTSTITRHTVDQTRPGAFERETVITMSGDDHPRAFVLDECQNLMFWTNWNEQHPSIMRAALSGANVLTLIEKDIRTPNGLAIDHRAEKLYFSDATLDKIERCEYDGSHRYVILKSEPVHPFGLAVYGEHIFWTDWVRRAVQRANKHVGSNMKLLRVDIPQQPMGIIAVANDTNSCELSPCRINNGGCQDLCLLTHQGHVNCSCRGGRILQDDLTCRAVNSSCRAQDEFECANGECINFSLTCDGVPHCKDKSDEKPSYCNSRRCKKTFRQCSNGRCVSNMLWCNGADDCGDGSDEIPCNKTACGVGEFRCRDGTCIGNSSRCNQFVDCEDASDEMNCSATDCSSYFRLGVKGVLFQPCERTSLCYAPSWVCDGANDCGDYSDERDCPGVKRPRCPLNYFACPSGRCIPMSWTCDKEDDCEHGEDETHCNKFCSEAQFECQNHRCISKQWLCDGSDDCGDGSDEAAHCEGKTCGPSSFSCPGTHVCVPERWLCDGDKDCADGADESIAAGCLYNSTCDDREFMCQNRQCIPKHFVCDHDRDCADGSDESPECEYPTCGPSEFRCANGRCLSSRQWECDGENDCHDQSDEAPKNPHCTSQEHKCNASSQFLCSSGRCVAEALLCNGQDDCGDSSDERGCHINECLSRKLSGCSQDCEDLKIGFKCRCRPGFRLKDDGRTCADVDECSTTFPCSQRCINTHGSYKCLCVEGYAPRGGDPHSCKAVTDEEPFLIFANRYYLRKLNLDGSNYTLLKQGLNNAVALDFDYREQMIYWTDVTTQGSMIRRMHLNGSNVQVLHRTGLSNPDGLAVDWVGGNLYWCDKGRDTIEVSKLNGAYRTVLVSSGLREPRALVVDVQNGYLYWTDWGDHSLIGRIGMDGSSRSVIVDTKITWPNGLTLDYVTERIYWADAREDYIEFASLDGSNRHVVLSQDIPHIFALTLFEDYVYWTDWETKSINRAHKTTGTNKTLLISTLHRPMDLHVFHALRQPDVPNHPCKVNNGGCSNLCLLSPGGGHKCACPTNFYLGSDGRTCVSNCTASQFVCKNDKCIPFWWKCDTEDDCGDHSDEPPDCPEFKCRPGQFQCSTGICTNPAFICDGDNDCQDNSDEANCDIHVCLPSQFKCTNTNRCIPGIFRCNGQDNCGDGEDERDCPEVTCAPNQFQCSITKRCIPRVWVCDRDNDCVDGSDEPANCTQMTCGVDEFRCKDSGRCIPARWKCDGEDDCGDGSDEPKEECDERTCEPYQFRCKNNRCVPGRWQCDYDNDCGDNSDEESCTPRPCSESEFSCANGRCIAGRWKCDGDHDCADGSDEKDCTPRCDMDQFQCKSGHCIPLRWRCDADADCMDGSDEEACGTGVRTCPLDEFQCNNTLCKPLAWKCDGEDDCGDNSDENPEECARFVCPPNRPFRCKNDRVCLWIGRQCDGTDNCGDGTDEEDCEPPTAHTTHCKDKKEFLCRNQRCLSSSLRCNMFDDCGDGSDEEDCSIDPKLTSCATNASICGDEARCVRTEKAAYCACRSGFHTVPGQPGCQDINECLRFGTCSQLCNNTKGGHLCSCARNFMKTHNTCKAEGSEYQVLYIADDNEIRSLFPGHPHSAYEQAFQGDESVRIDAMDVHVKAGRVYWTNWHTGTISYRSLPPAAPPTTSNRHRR
Sequence of low-density lipoprotein receptor-related protein 1 (LRP-1), human (human) (Q07954 3944-4544, chain 2 of 2): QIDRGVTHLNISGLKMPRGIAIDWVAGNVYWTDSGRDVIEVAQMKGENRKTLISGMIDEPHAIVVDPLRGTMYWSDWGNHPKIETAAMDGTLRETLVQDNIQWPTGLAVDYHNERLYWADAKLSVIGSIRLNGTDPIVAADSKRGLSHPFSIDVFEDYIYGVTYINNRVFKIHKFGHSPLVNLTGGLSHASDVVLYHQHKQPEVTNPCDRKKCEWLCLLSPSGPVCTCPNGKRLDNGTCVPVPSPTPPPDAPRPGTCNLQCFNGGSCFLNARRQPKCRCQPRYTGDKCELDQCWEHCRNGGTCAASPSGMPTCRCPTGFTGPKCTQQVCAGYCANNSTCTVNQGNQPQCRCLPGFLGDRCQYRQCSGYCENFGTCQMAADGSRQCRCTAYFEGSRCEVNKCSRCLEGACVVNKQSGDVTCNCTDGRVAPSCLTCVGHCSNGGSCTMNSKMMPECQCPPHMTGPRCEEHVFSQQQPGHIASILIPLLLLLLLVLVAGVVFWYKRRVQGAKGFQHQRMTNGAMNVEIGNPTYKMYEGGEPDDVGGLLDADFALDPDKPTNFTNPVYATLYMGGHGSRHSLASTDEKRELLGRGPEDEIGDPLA

For GYRPVHNIRGHWAPGK-NH2 [GYR (peptide 2)], the results for the Kd in experiment [1] and in experiment [2] were 171000 nM and 100 nM, respectively.

For FRCLVENRGDVPFVTRIR-NH2 [MTfp (peptide 1), peptide derived from melanotransferrin], the dissociation constant Kd in experiment [3] was 1300 nM; in experiment [1] it was 507 nM; in experiment [2], 0.57 nM.
